To fix the notation:
B1: CDC25B (parent)
chain: FVDILESDLKDDDAVPPGMESLIS

For 94 variants, protein stability index results are on record in the supplement of paper PMC10567573.
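Further: lentivirally expressed fusions sorted by FACS into six bins by GFP to DsRed ratio, PSI derived from sequencing read proportions per bin multiplied by bin number.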

In the series the parent is B1. Kind of series: protein stability index of a GFP-peptide fusion (GPS, HEK-293T) (PSI 1-6); higher = more stable. Particulars: c terminus: a fixed tail appended.
As to FVDILNSDLKDDDAVPPGMESLIS [E6N], the protein stability index is 3.13.
The result for FVDILMSDLKDDDAVPPGMESLIS [E6M] reads 2.38; that for FVDILKSDLKDDDAVPPGMESLIS [E6K], 2.84.
The result for FVDILDSDLKDDDAVPPGMESLIS [E6D] reads 2.88.
Consider FVDILPSDLKDDDAVPPGMESLIS [E6P], for which the protein stability index stood at 2.37.
The value for FVDILGSDLKDDDAVPPGMESLIS [E6G] was 2.31; that for FVDILASDLKDDDAVPPGMESLIS [E6A] was 2.04.
The value for FVDILQSDLKDDDAVPPGMESLIS [E6Q] was 2.89.
With FVDILVSDLKDDDAVPPGMESLIS [E6V], the protein stability index was 2.19.
The value for FVDILFSDLKDDDAVPPGMESLIS [E6F] was 2.68; that for FVDILSSDLKDDDAVPPGMESLIS [E6S] was 2.54; that for FVDILISDLKDDDAVPPGMESLIS [E6I] was 1.93.
Consider FVDILCSDLKDDDAVPPGMESLIS [E6C], for which the protein stability index came out at 2.13.
The value for FVDILWSDLKDDDAVPPGMESLIS [E6W] was 2.32.
The value for FVDILLSDLKDDDAVPPGMESLIS [E6L] was 2.45.
Turning to FVDILTSDLKDDDAVPPGMESLIS [E6T], the protein stability index was determined as 2.58.
In the case of FVDILYSDLKDDDAVPPGMESLIS [E6Y], the protein stability index worked out at 2.33.
The result for FVDILRSDLKDDDAVPPGMESLIS [E6R] reads 2.2.
The result for FVDILHSDLKDDDAVPPGMESLIS [E6H] reads 2.55; that for FVDLLESDLKDDDAVPPGMESLIS [I4L], 2.75.
As to FVDNLESDLKDDDAVPPGMESLIS [I4N], the protein stability index worked out at 4.34.
The result for FVDALESDLKDDDAVPPGMESLIS [I4A] reads 4.18.
As for FVDWLESDLKDDDAVPPGMESLIS [I4W], the protein stability index stood at 2.29.
The value for FVDSLESDLKDDDAVPPGMESLIS [I4S] was 4.05; that for FVDCLESDLKDDDAVPPGMESLIS [I4C] was 3.91; that for FVDYLESDLKDDDAVPPGMESLIS [I4Y] was 2.52.
The result for FVDELESDLKDDDAVPPGMESLIS [I4E] reads 4.52; that for FVDQLESDLKDDDAVPPGMESLIS [I4Q], 3.75.
Regarding FVDDLESDLKDDDAVPPGMESLIS [I4D], the protein stability index is 4.54.
For the variant FVDGLESDLKDDDAVPPGMESLIS [I4G], the protein stability index is 3.46.
On to FVDPLESDLKDDDAVPPGMESLIS [I4P], for which the protein stability index came out at 4.03.
The value for FVDMLESDLKDDDAVPPGMESLIS [I4M] was 2.47; that for FVDTLESDLKDDDAVPPGMESLIS [I4T] was 3.37; that for FVDVLESDLKDDDAVPPGMESLIS [I4V] was 3.13.
The value for FVDFLESDLKDDDAVPPGMESLIS [I4F] was 2.8; that for FVDKLESDLKDDDAVPPGMESLIS [I4K] was 2; that for FVDHLESDLKDDDAVPPGMESLIS [I4H] was 3.
The result for FVDRLESDLKDDDAVPPGMESLIS [I4R] reads 3.11; that for FVDILELDLKDDDAVPPGMESLIS [S7L], 2.21.
As to FVDILEFDLKDDDAVPPGMESLIS [S7F], the protein stability index turned out to be 1.9.
The value for FVDILEDDLKDDDAVPPGMESLIS [S7D] was 3.67; that for FVDILEGDLKDDDAVPPGMESLIS [S7G] was 3.22.
The result for FVDILEIDLKDDDAVPPGMESLIS [S7I] reads 2.3; that for FVDILEHDLKDDDAVPPGMESLIS [S7H], 2.6.
The value for FVDILEMDLKDDDAVPPGMESLIS [S7M] was 2.6; that for FVDILEEDLKDDDAVPPGMESLIS [S7E] was 3.79; that for FVDILEADLKDDDAVPPGMESLIS [S7A] was 2.79.
As for FVDILECDLKDDDAVPPGMESLIS [S7C], the protein stability index stood at 3.23.
As for FVDILEKDLKDDDAVPPGMESLIS [S7K], the protein stability index turned out to be 2.6.
The result for FVDICESDLKDDDAVPPGMESLIS [L5C] reads 3.02; that for FVDIGESDLKDDDAVPPGMESLIS [L5G], 3.73; that for FVDITESDLKDDDAVPPGMESLIS [L5T], 3.51.
With FVDIYESDLKDDDAVPPGMESLIS [L5Y], the protein stability index turned out to be 2.8.
The value for FVDIVESDLKDDDAVPPGMESLIS [L5V] was 3.03; that for FVDIFESDLKDDDAVPPGMESLIS [L5F] was 2.35; that for FVDIQESDLKDDDAVPPGMESLIS [L5Q] was 3.67.
The value for FVDIEESDLKDDDAVPPGMESLIS [L5E] was 4.46; that for FVDIMESDLKDDDAVPPGMESLIS [L5M] was 3.57.
The result for FVDIRESDLKDDDAVPPGMESLIS [L5R] reads 2.94; that for FVDIKESDLKDDDAVPPGMESLIS [L5K], 3.63; that for FVDIIESDLKDDDAVPPGMESLIS [L5I], 2.46.
Turning to FVDINESDLKDDDAVPPGMESLIS [L5N], the protein stability index was 3.81.
On to FVDISESDLKDDDAVPPGMESLIS [L5S], for which the protein stability index stood at 4.58.
The value for FVDIDESDLKDDDAVPPGMESLIS [L5D] was 4.61.
The result for FVDIWESDLKDDDAVPPGMESLIS [L5W] reads 1.85.
Turning to FVDIHESDLKDDDAVPPGMESLIS [L5H], the protein stability index was 3.7.
Consider FVDIAESDLKDDDAVPPGMESLIS [L5A], for which the protein stability index is 3.84.
In the case of FVDIPESDLKDDDAVPPGMESLIS [L5P], the protein stability index was found to be 3.75.
In the case of FVKILESDLKDDDAVPPGMESLIS [D3K], the protein stability index came to 2.65.
The result for FVRILESDLKDDDAVPPGMESLIS [D3R] reads 2.12.
The value for FVPILESDLKDDDAVPPGMESLIS [D3P] was 2.93; that for FVTILESDLKDDDAVPPGMESLIS [D3T] was 2.39.
The result for FVMILESDLKDDDAVPPGMESLIS [D3M] reads 1.92.
On to FVWILESDLKDDDAVPPGMESLIS [D3W], for which the protein stability index was 1.91.
Regarding FVYILESDLKDDDAVPPGMESLIS [D3Y], the protein stability index turned out to be 2.15.
The value for FVSILESDLKDDDAVPPGMESLIS [D3S] was 2.96; that for FVEILESDLKDDDAVPPGMESLIS [D3E] was 3.46.
Take FVIILESDLKDDDAVPPGMESLIS [D3I]: the protein stability index stood at 2.75.
The value for FVCILESDLKDDDAVPPGMESLIS [D3C] was 2.4; that for FVHILESDLKDDDAVPPGMESLIS [D3H] was 2.91.
The result for FVNILESDLKDDDAVPPGMESLIS [D3N] reads 2.81; that for FVGILESDLKDDDAVPPGMESLIS [D3G], 2.83.
The result for FVFILESDLKDDDAVPPGMESLIS [D3F] reads 1.6; that for FVQILESDLKDDDAVPPGMESLIS [D3Q], 3.04.
As to FVVILESDLKDDDAVPPGMESLIS [D3V], the protein stability index is 1.86.
The result for FVLILESDLKDDDAVPPGMESLIS [D3L] reads 1.93; that for FVAILESDLKDDDAVPPGMESLIS [D3A], 2.65.
The value for FWDILESDLKDDDAVPPGMESLIS [V2W] was 3.32; that for FRDILESDLKDDDAVPPGMESLIS [V2R] was 4.31; that for FTDILESDLKDDDAVPPGMESLIS [V2T] was 4.43.
Take FPDILESDLKDDDAVPPGMESLIS [V2P]: the protein stability index turned out to be 4.8.
The value for FYDILESDLKDDDAVPPGMESLIS [V2Y] was 4.29.
The value for FQDILESDLKDDDAVPPGMESLIS [V2Q] was 3.98; that for FSDILESDLKDDDAVPPGMESLIS [V2S] was 5.04.
